The record followed here is US20170152313A1 (Novartis, published 2017).

Experiment [1] deals with T1, Human LOX-1 full-length protein (human, UniProt P78380 1-273). The experiment is described as follows: cell-based or functional assay.
Experiment [2] addresses T2, APP-Avi-soluble cynomolgus monkey LOX-1 (61-273) (cynomolgus monkey, biotinylated at the Avi tag when immobilised in the SET assay).
T2 construct: Expressed and purified in the same way as the human protein; also called cynomolgus monkey soluble LOX-1; Cynomolgus Monkey Soluble APP-Avi-LOX-1
Briefly: SPR Biacore T200, antibody captured by anti-human IgG, cynomolgus soluble LOX-1 as analyte, 1:1 model. How it is done: Surface plasmon resonance measurements quantifying the interaction of humanized LOX-1 antibodies with human or cynomolgus monkey LOX-1 were done with the optical biosensor BIAcore T200 on a CM5 chip. Goat-anti-hlgG (gamma) (Invitrogen H10500) was coated at 3,000 RU on the CM5 chip in acetate buffer, pH 4.0. The running buffer used was PBS, pH 7.4 (filtered, degassed). Test antibodies were loaded into individual flow cells at a concentration of 1 ug/mL at a flow rate of 10 uL/min. The target number of IgG capture was between 20-30 RU, in HBS-EP buffer (0.01M HEPES, pH 7.4, 0.15M NaCl, 3 mM EDTA, 0.05% P20). Human or cynomolgus monkey soluble LOX-1 was diluted to a concentration of 33 nM in HBS-EP buffer, then diluted serially (1:3) down to a concentration of 0.137 nM. This represents six different concentrations of human or cynomolgus monkey LOX-1. The antigen was introduced into individual flow cells at a flow rate of 30 uL/min. Parameters for association time were set at 700 seconds and dissociation time was set at 5,400 seconds. Data were analyzed using buffer blanks, reference blank, and a 1:1 binding model for curve fitting in order to determine association and dissociation rate constants (ka and kd) and equilibrium binding constants (KD) (see results for FF1, FF3, FF4, FF5, and FF6 in Tables 7-8).
Background: Surface plasmon resonance follows binding to a sensor surface in real time, without labels.

The target of experiment [3] is T1, Human LOX-1 full-length protein. The experiment is described as follows: flow cytometry, inhibition of dil-OxLDL binding to huLOX-1/HEK293 cells. Here is the method:
The huLOX-1/HEK293 cells were resuspended at 1×10⁶ cells/mL and seeded 50 μL per well into a 96-well V-bottom plate (5×10⁴ cells per well). LOX-1 or irrelevant control antibodies in assay medium (DMEM+10% FBS) were then added to the cells. Typical final antibody concentrations ranged from 0.006 μg/mL to 20 μg/mL. The cells were incubated at 37° C. for 1 hour, then washed twice with warm HBSS. Dil-oxLDL (human dil-labeled “High Oxidized” LDL, Kalen Biomedical, catalog number 770262-9; Dil is 1,1′-dioctadecyl-3,3,3′,3′-tetramethylindocarbocyanine perchlorate) in 50 ul assay medium was then added to a final concentration 30 to 100 μg/mL. The cells were then incubated at 37° C. for 2 hours, and then washed twice with FACS buffer (2% FBS in PBS). Cells were then analyzed for intensity of Di-I fluorescence by flow cytometry, as depicted in FIG. 2 and Table 3.

Experiment [4] shares this target. Briefly: flow cytometry, biotinylated antibody on primary human neutrophils, PE-streptavidin. How it is done: The resulting cell suspension was carefully transferred to a 50 mL conical tube containing 10 mL Ficoll-Paque, layering the cell suspension on top of the Ficoll-Paque, and the tube was then centrifuged at 1400 rpm (400×g) for 30 minutes at room temperature. The top layer was the discarded. To the resulting cell pellet, 10 mL 0.2% ice-cold sodium chloride was added, and the mixture was incubated for exactly 30 seconds to lyse red blood cells; 10 mL of ice-cold 1.6% sodium chloride was added to restore isotonicity. The cell suspension was then centrifuged at 1200 rpm ([…]) for 5 minutes. The supernantant was then discarded, and the red blood cell lysis procedure repeated once more. The resulting cell pellet was resuspended in FACS buffer (2 mM EDTA, 1% BSA, and 0.2% sodium azide in PBS) at a cell density of 2×10⁶ cells/mL.
The cell suspension containing freshly isolated human neutrophils was transferred (50 ul/well) to wells of a 96-well V-bottom plate (1×10⁵ cells/well) (Costar, catalog number 3894). Blocking buffer (4% normal rabbit serum diluted in FACS buffer (2 mM EDTA, 1% BSA, and 0.2% sodium azide in PBS) (50 ul/well) was added and the plate was incubated on ice for 30 minutes. Biotinylated LOX-1 antibody (10 μl) in FACS buffer was then added to the wells at final concentrations ranging from 1 ng/ml to 5 ug/mL, and the plate was incubated on ice for 30 minutes. The plate was then centrifuged at 1200 rpm (250-300×g) for 3 minutes and supernatant was discarded. The cells were then washed twice with 0.2 mL FACS buffer, and then 0.1 mL of PE-streptavidin (BD Pharmingen catalog number 554061) diluted at 1:250 in FACS buffer was added, and the plate incubated on ice for 30 minutes. The plate was then centrifuged again, supernatant discarded, and the cells washed twice with 0.2 mL FACS buffer. Cells were then resuspended in 0.1 mL of fixing buffer (FACS buffer with 2% paraformaldehyde) and analyzed using a FACS instrument. To determine an EC50 value for neutrophil binding by LOX-1 antibodies, the LOX-1 staining intensity determined by FACS was plotted vs. the concentration of the antibody as shown in FIG. 5 and Table 3.

In experiment [5] the target is Human Soluble His9-LOX-1 from R&D Systems (human, UniProt P78380 61-273). Briefly: solution equilibrium titration (SET), MSD read-out. Here is the method:
(§1) For humanized LOX-1 antibodies FF1, FF3, FF4, FF5, and FF6, the following solution equilibrium titration (SET) assay protocol was used to determine KD values. The assays were performed in a 96-well polypropylene plate (Thermo Scientific, Catalog no. AB-1127) as follows. A constant concentration of LOX-1 antibody (1 pM) was mixed with different concentrations of non-biotinylated human or cynomolgus monkey LOX-1 protein (3-fold serial dilution ranging from 1 nM to 0.017 pM) in SET buffer (PBS, pH 7.4 without CaCl₂ or MgCl₂, Gibco, catalog no. P7949; 0.5% w/v bovine serum albumin, fatty acid free, Calbiochem, catalog no. 26575; and 0.02% v/v Tween-20, Sigma, catalog no. P7949). The final reaction volume was […]. The plate was sealed using an adhesive film (WVR, catalog no. 60941-062) and incubated at 22° C. for 14 hours with constant shaking (300 rpm).
(§2) During the same period, a 384-well streptavidin-coated MSD plate (Meso Scale Discovery, catalog no. L21SA) was blocked by incubating the plate with 50 μL blocking buffer (PBS, pH 7.4, 5% w/v bovine serum albumuin) per well overnight at 4° C. The blocked MSD plate was then washed 3 times with wash buffer (PBS, pH 7.4 and 0.05% v/v Tween-20) using a plate washer (BioTek). Following washing, biotinylated human or cynomolgus monkey soluble LOX-1 protein (25 pM, 15 μL per well) was immobilized on the surface by incubation at 22° C. for one hour with constant shaking (600 rpm). The plate was then washed 3 times as described earlier. In some experiments, non-biotinylated soluble human LOX-1 protein was used (R&D systems, catalog no. 1798-LX-050) was used; in this case the LOX-1 protein was immobilized by overnight incubation at 1 nM concentration in a standard MSD plate (MSD, catalog no. L21XA). The equilibrium binding reactions (15 μL per well) were then applied to the MSD plate with immobilized LOX-1 and incubated for 30 min. The unbound material was removed by washing the plate, and the captured antibody was detected by adding 15 μL per well of a 1:500 dilution of Sulfa-tagged goat anti-human IgG (Mesa Scale Discovery, catalog no. R3AJ-1). The plate was then incubated for one hour with constant shaking (600 rpm). The plate was washed 3 times, and then […] 1×MSD read buffer T(Meso Scale Discovery, catalog no. R92TC-2) was added and the plate was developed using a Sector Imager 6000 (Mesa Scale Discovery).

The target in experiment [6] is T2, APP-Avi-soluble cynomolgus monkey LOX-1 …. Briefly: solution equilibrium titration (SET), MSD read-out. Here is the method:
as §1, §2

T2 sequence (chain, as listed by the source): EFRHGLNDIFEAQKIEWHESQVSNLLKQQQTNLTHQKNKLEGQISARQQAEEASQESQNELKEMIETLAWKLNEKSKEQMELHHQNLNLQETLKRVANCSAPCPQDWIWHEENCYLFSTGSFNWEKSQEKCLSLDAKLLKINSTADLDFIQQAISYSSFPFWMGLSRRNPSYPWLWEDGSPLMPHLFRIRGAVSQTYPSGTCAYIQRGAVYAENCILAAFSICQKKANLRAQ

B1: FF5 (antibody, human IgG1, kappa, L234A L235A, V domains shown)
VH: QVQLVQSGAEVKKPGASVKVSCKASGYTFTDYEVHWVRQAPGQGLEWMGAIHPGSGGAAYVQKFQGRVTMTRDTSISTAYMELSRLRSDDTAVYYCARWLPMDYWGQGTLVTVSS
VL: DIQMTQSPSSVSASVGDRVTITCRASQGINNWLVWYQQKPGKAPKLLLYAASRLESGVPSRFSGSGSGTDYTLTISSLQPEDIATYYCQQYLITPYTFGQGTKLEIKR
notes: Humaneered variant of E2E10, tested as full human IgG; Biotinylated for the neutrophil assay; also called LLG787; LLG787 (FF5)
The term koff denotes the first-order rate constant of dissociation. For orientation: kon means a measure of how fast the partners come together. What is called IC50 is the concentration that gives 50% inhibition. In general, EC50 refers to the concentration needed to bring the measured effect to its halfway point. Consider B1, for which the “Reactive oxygen species (ROS) generation in huLOX-1/HEK293 cells (IC50, nM)” value (shortened to “Reactive oxygen species (ROS) generation”) in experiment [1] came out at 4.8 nM. The results for the Kd in experiment [2], in experiment [5] and in experiment [6] were 0.035 nM, 0.0008 nM and 0.0006 nM, respectively. The off-rate (koff) in experiment [2] is 4.8e-05 s⁻¹. The molecule further returned a kon in experiment [2] of 1.4e+06 M⁻¹ s⁻¹. The IC50 in experiment [3] came to 4.1 nM. In experiment [4], the EC50 stood at 0.08 µg/mL.

B2: FF6 (antibody, human IgG1, kappa, L234A L235A, V domains shown)
VH: QVQLVQSGAEVKKPGASVKVSCKASGYTFTDYEVHWVRQAPGQGLEWMGAIHPGSGGAAYVQKFQGRVTMTRDTSISTAYMELSRLRSDDTAVYYCARWLPIDYWGQGTLVTVSS
VL: DIQMTQSPSSVSASVGDRVTITCRASQGINNWLVWYQQKPGKAPKLLLYAASRLESGVPSRFSGSGSGTDYTLTISSLQPEDIATYYCQQYLITPYTFGQGTKLEIKR
notes: Humaneered variant of E2E10, tested as full human IgG; Biotinylated for the neutrophil assay; also called LLG788; LLG788 (FF6)
B2: the “Reactive oxygen species (ROS) generation” value in experiment [1] amounted to 7.9 nM. In experiment [2], the Kd was 0.053 nM, the dissociation rate constant (koff) is 5e-05 s⁻¹ and the kon came to 950000 M⁻¹ s⁻¹. The molecule further yielded a half-maximal inhibitory concentration (IC50) in experiment [3] of 5.9 nM. Also, the EC50 in experiment [4] was determined as 0.28 µg/mL. The Kd in experiment [5] was 0.002 nM. The Kd in experiment [6] is 0.0016 nM.

B3: FF3 (antibody, human IgG1, kappa, L234A L235A, V domains shown)
VH: QVQLVQSGAEVKKPGASVKVSCKASGYTFTDYEVHWVRQAPGQGLEWMGAIHPGSGGAAYVQKFQGRVTMTRDTSISTAYMELSRLRSDDTAVYYCARWLPMDYWGQGTLVTVSS
VL: DIQMTQSPSSVSASVGDRVTITCRASQGINNWLVWYQQKPGKAPKLLIYAASSLQSGVPSRFSGSGSGADYTLTISSLQPEDFATYYCQQYLITPYTFGQGTKLEIKR
notes: Humaneered variant of E2E10, tested as full human IgG; Biotinylated for the neutrophil assay; also called LLG785; LLG785 (FF3)
B3: in experiment [1], the “Reactive oxygen species (ROS) generation” value amounted to 7.4 nM. For the same molecule, in experiment [2], the Kd worked out at 0.023 nM, the koff amounted to 1.7e-05 s⁻¹ and the on-rate (kon) is 770000 M⁻¹ s⁻¹. Further, the IC50 in experiment [3] came to 3.3 nM. Further, the EC50 in experiment [4] came out at 0.13 µg/mL. Moreover, the Kd in experiment [5] came to 0.0023 nM. Moreover, the Kd in experiment [6] amounted to 0.0034 nM.

B4: FF4 (antibody, human IgG1, kappa, L234A L235A, V domains shown)
VH: QVQLVQSGAEVKKPGASVKVSCKASGYTFTDYEVHWVRQAPGQGLEWMGAIHPGSGGAAYVQKFQGRVTMTRDTSISTAYMELSRLRSDDTAVYYCARWLPMDYWGQGTLVTVSS
VL: DIQMTQSPSSVSASVGDRVTITCRASQGITNWLAWYQQKPGKAPKLLIYAASILESGVPSRFSGSGSGTDYTLTISSLQPEDIATYYCQQYLITPYTFGQGTKLEIKR
notes: Humaneered variant of E2E10, tested as full human IgG; the text and claims pair heavy chain 56 with light chain 66; Biotinylated for the neutrophil assay; also called LLG786; LLG786 (FF4)
For the molecule B4, the “Reactive oxygen species (ROS) generation” value in experiment [1] was 5.3 nM. In addition, the values for the Kd in experiment [2], in experiment [5] and in experiment [6] were 0.001 nM, 0.0007 nM and 0.0007 nM, respectively. Also, the koff in experiment [2] was 2.6e-06 s⁻¹. The same molecule registered a kon in experiment [2] of 2.1e+06 M⁻¹ s⁻¹. Also, the IC50 in experiment [3] came out at 5 nM. Besides, a half-maximal effect in experiment [4] (EC50) was put at 0.23 µg/mL.

B5: FF1 (antibody, human IgG1, kappa, L234A L235A, V domains shown)
VH: QVQLVQSGAEVKKPGASVKVSCKASGYTFTDYEVHWVRQAPGQGLEWMGAIHPGSGGAAYVQKFQGRVTMTRDTSTSTAYMELSSLRSDDTAVYYCARWLPMDYWGQGTLVTVSS
VL: DIQMTQSPSSVSASVGDRVTITCRASQGINNWLVWYQQKPGKAPKLLIYAASSLQSGVPSRFSGSGSGADYTLTISSLQPEDFATYYCQQYLITPYTFGQGTKLEIKR
notes: Humaneered variant of E2E10, tested as full human IgG (captured or detected with anti-human IgG); Biotinylated for the neutrophil assay; also called LLG783; LLG783 (FF1)
As to B5, in experiment [1], the “Reactive oxygen species (ROS) generation” value came to 6 nM. In experiment [2], the Kd was 0.012 nM, the off-rate constant (koff) is 1.3e-05 s⁻¹ and the kon worked out at 1.1e+06 M⁻¹ s⁻¹. In experiment [3], this molecule yielded an IC50 of 5.5 nM. Further, a half-maximal effect in experiment [4] (EC50) was put at 0.15 µg/mL. In addition, the Kd in experiment [5] amounted to 0.0031 nM. In experiment [6], the Kd was determined as 0.0018 nM.
